Drawing on paper PMC314469, “Protein Interaction Networks by Proteome Peptide Scanning” (PLoS Biology, 2004), this text covers normalised SPOT signal, Boehringer light units (BLU); mean over the file's lines of this peptide for 19 molecules.

Sequences and labels used below:
B1: YBR082C 59-72 (peptide)
chain: TDYPFKPPKISFTT
B2: YPR115W 471-484 (peptide)
chain: TDPPPQPRRLSDIV
B3: YDR464W 568-581 (peptide)
chain: TEVPSKPKKPSKTE
B4: YOL090W 24-37 (peptide)
chain: TGLPKKPLKTIRLV
B5: YOR367W 153-166 (peptide)
chain: TKKPRPPVKSKPKH
B6: YMR042W 23-36 (peptide)
chain: TNEPTKPIRRLSTP
B7: YDL113C 210-223 (peptide)
chain: TLIPPIPEKQSIKN
B8: YER068W 519-532 (peptide)
chain: TKTPTQPIRLQTVS
B9: YOR191W 815-828 (peptide)
chain: TGFPPTPLKREGVG
B10: YHR129C 114-127 (peptide)
chain: TEAPMNPLKNREQM
B11: YKL148C 467-480 (peptide)
chain: TLQPGLPHKPLPSD
B12: YLR289W 228-241 (peptide)
chain: TGRPDKPFRALLVD
B13: YJL045W 461-474 (peptide)
chain: TLQPGLPHKPLASN
B14: YDL029W 109-122 (peptide)
chain: TEPPMNPLKNREKM
B15: YDL164C 384-397 (peptide)
chain: TLRPGIPLKPMLAK
B16: YDR059C 59-72 (peptide)
chain: TDYPFKPPKVNFTT
B17: YHL007C 507-520 (peptide)
chain: THAPTTPNRTSPNR
B18: YGL207W 463-476 (peptide)
chain: TKVPSKPDRNSKIL
B19: YDL197C 472-485 (peptide)
chain: TDSPQLPSKDKSQE

One assay has as its target T1, Yfr024 SH3 (LSB3_YEAST), P43603.
T1 chain: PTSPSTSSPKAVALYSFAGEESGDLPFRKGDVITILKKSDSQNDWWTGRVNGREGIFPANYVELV
Description: SPOT array.
For B1, the normalised SPOT signal, Boehringer light units (BLU); mean over the file's lines of this peptide was determined as 374.
Same read-out and setting: the figure for B2 is 5490.
B3 gave a normalised SPOT signal, Boehringer light units (BLU); mean over the file's lines of this peptide of 3310.
Same read-out and setting: the figure for B4 is 746; for B5 it is 344; for B6 it is 4980.
In the case of B7, the normalised SPOT signal, Boehringer light units (BLU); mean over the file's lines of this peptide turned out to be 259.
On the same count and under the same terms, the figure for B8 is 1360.
Same read-out and setting: to B9 belongs 1730; to B10, 395.
Turning to B11, the normalised SPOT signal, Boehringer light units (BLU); mean over the file's lines of this peptide came out at 295.
B12 showed a normalised SPOT signal, Boehringer light units (BLU); mean over the file's lines of this peptide of 5660.
With B13, the normalised SPOT signal, Boehringer light units (BLU); mean over the file's lines of this peptide came out at 3.9.
On the same count and under the same terms, to B14 belongs 648; to B15, 303.
Same read-out and setting: to B16 belongs 570; to B17, 14600; to B18, 4410.
Same read-out and setting: the figure for B19 is 4380.

Another assay has as its target T2, Rvs167 SH3 (RV167_YEAST), P39743.
T2 chain: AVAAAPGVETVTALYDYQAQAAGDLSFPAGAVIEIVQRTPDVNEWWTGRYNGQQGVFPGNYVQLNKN
Nature of the assay: SPOT array.
Consider B1, for which the normalised SPOT signal, Boehringer light units (BLU); mean over the file's lines of this peptide was determined as 43.3.
The same measure, in the same setting: to B2 belongs 122; to B3, 75.4; to B4, 78.4.
Same read-out and setting: to B5 belongs 54.9; to B6, 46.4; to B7, 38.
The molecule B8 returned a normalised SPOT signal, Boehringer light units (BLU); mean over the file's lines of this peptide of 104.
Take B9: the normalised SPOT signal, Boehringer light units (BLU); mean over the file's lines of this peptide is 58.1.
Same read-out and setting: to B10 belongs 21.5; to B11, 74.3; to B12, 789.
B13 had a normalised SPOT signal, Boehringer light units (BLU); mean over the file's lines of this peptide of 16.3.
On the same count and under the same terms, to B14 belongs 147.
Molecule B15 yielded a normalised SPOT signal, Boehringer light units (BLU); mean over the file's lines of this peptide of 118.
Same read-out and setting: to B16 belongs 93.6; to B17, 552.
Regarding B18, the normalised SPOT signal, Boehringer light units (BLU); mean over the file's lines of this peptide came to 44.
Consider B19, for which the normalised SPOT signal, Boehringer light units (BLU); mean over the file's lines of this peptide was found to be 95.6.

In another assay the target is T3, Boi2 SH3 (BOI2_YEAST), P39969.
T3 chain: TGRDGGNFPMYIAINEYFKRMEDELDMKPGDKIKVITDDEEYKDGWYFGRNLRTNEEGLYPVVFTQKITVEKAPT
Nature of the assay: SPOT array.
As for B1, the normalised SPOT signal, Boehringer light units (BLU); mean over the file's lines of this peptide was found to be 89.1.
Same read-out and setting: to B2 belongs 36; to B3, 39.9.
Still for that read-out and setting: to B4 belongs 74.6.
Same read-out and setting: to B5 belongs 25.1.
The molecule B6 gave a normalised SPOT signal, Boehringer light units (BLU); mean over the file's lines of this peptide of 0.
The same measure, in the same setting: to B7 belongs 37.5; to B8, 60.2.
Still for that read-out and setting: the figure for B9 is 54; for B10 it is 56.4.
Same read-out and setting: to B11 belongs 53.3; to B12, 47.3; to B13, 62.6.
B14 had a normalised SPOT signal, Boehringer light units (BLU); mean over the file's lines of this peptide of 55.1.
On the same count and under the same terms, the figure for B15 is 49.9; for B16 it is 65.8; for B17 it is 14.4.
In the case of B18, the normalised SPOT signal, Boehringer light units (BLU); mean over the file's lines of this peptide was determined as 27.3.
Same read-out and setting: the figure for B19 is -0.

For the next assay, the target named is T4, Yhr016c SH3 (YSC84_YEAST), P32793.
T4 chain: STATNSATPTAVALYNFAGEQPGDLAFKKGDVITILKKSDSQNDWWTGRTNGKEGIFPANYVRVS
Nature of the assay: SPOT array.
On to B1, for which the normalised SPOT signal, Boehringer light units (BLU); mean over the file's lines of this peptide is 116.
For B2, the normalised SPOT signal, Boehringer light units (BLU); mean over the file's lines of this peptide stood at 1780.
Regarding B3, the normalised SPOT signal, Boehringer light units (BLU); mean over the file's lines of this peptide worked out at 67.2.
Regarding B4, the normalised SPOT signal, Boehringer light units (BLU); mean over the file's lines of this peptide turned out to be 144.
Take B5: the normalised SPOT signal, Boehringer light units (BLU); mean over the file's lines of this peptide stood at 127.
The same measure, in the same setting: the figure for B6 is 1280.
The same measure, in the same setting: the figure for B7 is 324.
The same measure, in the same setting: the figure for B8 is 234.
On to B9, for which the normalised SPOT signal, Boehringer light units (BLU); mean over the file's lines of this peptide stood at 430.
For the molecule B10, the normalised SPOT signal, Boehringer light units (BLU); mean over the file's lines of this peptide stood at 319.
Take B11: the normalised SPOT signal, Boehringer light units (BLU); mean over the file's lines of this peptide is 352.
Same read-out and setting: to B12 belongs 656.
On the same count and under the same terms, the figure for B13 is 86.1.
On the same count and under the same terms, to B14 belongs 125; to B15, 229; to B16, 232.
In turn, B17 returned a normalised SPOT signal, Boehringer light units (BLU); mean over the file's lines of this peptide of 4050.
Same read-out and setting: the figure for B18 is 416; for B19 it is 95.8.

For another assay, the target named is T5, Boi1 SH3 (BOI1_YEAST), P38041.
T5 chain: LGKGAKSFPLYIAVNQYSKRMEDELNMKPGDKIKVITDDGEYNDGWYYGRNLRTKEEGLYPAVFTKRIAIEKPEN
Description: SPOT array.
Molecule B1 displayed a normalised SPOT signal, Boehringer light units (BLU); mean over the file's lines of this peptide of 54.7.
In the case of B2, the normalised SPOT signal, Boehringer light units (BLU); mean over the file's lines of this peptide amounted to 69.1.
In turn, B3 yielded a normalised SPOT signal, Boehringer light units (BLU); mean over the file's lines of this peptide of 361.
On the same count and under the same terms, to B4 belongs 57.7; to B5, 61.5.
Consider B6, for which the normalised SPOT signal, Boehringer light units (BLU); mean over the file's lines of this peptide turned out to be 111.
On to B7, for which the normalised SPOT signal, Boehringer light units (BLU); mean over the file's lines of this peptide was determined as 82.1.
In the case of B8, the normalised SPOT signal, Boehringer light units (BLU); mean over the file's lines of this peptide turned out to be 139.
On the same count and under the same terms, to B9 belongs 7.5.
The same measure, in the same setting: the figure for B10 is 1.9.
B11 returned a normalised SPOT signal, Boehringer light units (BLU); mean over the file's lines of this peptide of 82.6.
Same read-out and setting: the figure for B12 is 110; for B13 it is 91.4.
The same measure, in the same setting: the figure for B14 is 87.1; for B15 it is 105; for B16 it is 58.8.
Same read-out and setting: the figure for B17 is 74.3; for B18 it is 152; for B19 it is 116.
